Tested on: MS2 coat protein
Assay: apparent KD of MS2 coat protein; designed switch direction (-1 OFF switch, 1 ON switch): 1; higher = weaker reporter binding
Procedure, shortened: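 Apparent KD, taken as the median over clusters for each design, was obtained by curve-fitting normalised cluster fluorescence. Designed RNA switches had been transcribed on Illumina chips by stalled E. coli RNA polymerase and titrated with SNAP-549-labelled MS2 coat protein, doubling from 0.7 or 1.5 nM to 3 µM.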

[1] = input ligand: microRNA oligo, concentration not stated
[2] = Eterna round: R95, input ligand: FMN 200 uM
[3] = Eterna round: R95, input ligand: microRNA oligo, concentration not stated
[4] = Eterna round: R95, input ligand: none

| Sequence | apparent KD of MS2 coat protein (input ligand: FMN 200 uM) [nM] | apparent KD of MS2 coat protein [1] [nM] | apparent KD of MS2 coat protein (input ligand: none) [nM] | apparent KD of MS2 coat protein [2] [nM] | apparent KD of MS2 coat protein [3] [nM] | apparent KD of MS2 coat protein [4] [nM] |
| --- | --- | --- | --- | --- | --- | --- |
| GUGGUCAGACAUGAGGAUCACCCAUGUGGAAUAAAUAACACAGAGGAUAUGGAAUAUAAAAUAUACCAGAAGGCUGGAUUGGUG (Eterna round: R96, puzzle: Same State NG 3) | 131 | 188 | 268 |  |  |  |
| UUAUUAUUUACAUGAGGAUCACCCAUGUUUUUAUGUCAGAGAUAGGAUAUAGUAGUCUCGUUUUACUAGAAGGAUCUUUUUAUU [JR_SSNG3_Sub084] (Eterna round: R96, puzzle: Same State NG 3) | 13.4 | 15.8 | 19.9 |  |  |  |
| AGAUCAUGACGAGGAUAUGGUACAUGAGGAUCACCCAUGUAUGUACCACGACGCGUACGUCGAAUCCAGAAGGCGUCAUGAUCA [Mat - Same State NG 2 - JL mod - D18] (Eterna round: R96, puzzle: Same State NG 2) | 21.6 | 92.8 | 150 |  |  |  |
| UGACACACGGCAGGAUAUCGAUUGCAAAGCAAUCGAGAAGGGCCUCAUGUCGUGGAAACGUGACAUGAGGAUCACCCAUGUUGC [Omei SS(NG)1 Cv14] (Eterna round: R96, puzzle: Same State NG 1) | 178 | 19.6 | 32.9 |  |  |  |
| GAGAGUGAAGUACAGGAUAUGAGGAGAGGAACAUGAGGAUCACCCAUGUGAAAUAGAGAGAAGAGUCAGAAGGGUAGGGAAGAGA [JR_SS2_Sub004] (puzzle: Same State 2) |  |  |  | 32.8 | 31.4 | 23 |
| AAUUAAGAUCAAGGAUAUCACGUCGAAUAGACGUGAGAAGGUGAUCAUAACAUGAGGAUCACCCAUGUAUUACAUGAAUUAAUU [SSNG1/2-B1] (Eterna round: R96, puzzle: Same State NG 1) | 71.3 | 177 | 289 |  |  |  |
| UUGUUUCGUCAUUAACAUGAGGAUCACCCAUGUCUUGGCCCAGAGGAUAUGCAUGUUUGAUUGUAGCAGAAGGCUGAUUGUUGU [JR_SSNG3_Sub031] (Eterna round: R96, puzzle: Same State NG 3) | 25.9 | 34.9 | 42.5 |  |  |  |
| UUAUCGCUUGGAGGAUAUCCAACUAUACUAAUUGGAGAAGGCCAAGCUACAGAGCUAAGCUUGGAAGUCACUUCGAAUCAACAC [pwkr ssNG1 F9.3] (Eterna round: R96, puzzle: Same State NG 1) | 33.2 | 5.18 | 48.8 |  |  |  |
| AAAACACAUGAGGAUCACCCAUGUACCAGGUACAUAGGAUAUCCAGGCGCCAAAUAGCGCGGAGAAGGAUGGAAAA [Radireatdi] (puzzle: Same State 1) |  |  |  | 78.2 | 237 | 1760 |
| CAUCCCUCCACAGGAUAUCGACCAAUAAAACGGCGAGAAGGGUGGCCACAUGAGGAUCACCCAUGUGGAAUUGGAUGAACUACC [Atusmaceor] (Eterna round: R96, puzzle: Same State NG 1) | 141 | 120 | 77 |  |  |  |
| AAAGCCCGUGCUAAGGAUAUGCGUACUCCUACAUGAGGAUCACCCAUGUCCCGCCGAAAAGGAAGGCAGAAGGUAGCACGGGCAA [Letiso] (puzzle: Same State 2) |  |  |  | 48.3 | 114 | 126 |
| AUGAAGAAUUAAGGAUAUUGAAUACAUAUGUUUAACAUGAGGAUCACCCAUGUGGGUUGCGGUAUCGAGAAGGUAAAUUAAUAG [Mat - same State NG 2 - JL mod - D90] (Eterna round: R96, puzzle: Same State NG 2) | 142 | 156 | 143 |  |  |  |
| UCGGGCGUACUUGCUGACAUGAGGAUCACCCAUGUCCUUGGGCAGGAUAUGGUUCCGUUUCGGUUCCAGAAGGUCCUGGCUGCU [salish99_SSNG3_r04_318] (Eterna round: R96, puzzle: Same State NG 3) | 18.1 | 24.4 | 25.5 |  |  |  |
| GGUAGGUUACUACCAAUACAUGAGGAUCACCCAUGUUGUCAUGAGGAUAUGGUACCUAUUUGGUACCAGAAGGCAUGUAUAAUU [Fiskers NG3ss - 20] (Eterna round: R96, puzzle: Same State NG 3) | 49.6 | 59.5 | 62 |  |  |  |
| UAGGGACAUGAGGAUCACCCAUGUGCCUCAUAUGGAGAAACUCAGGAUAUGCUGAGGAUCACCCGGCAGAAGGGAGAUUUGAGG (Eterna round: R96, puzzle: Same State NG 3) | 42.3 | 26.3 | 36.4 |  |  |  |
| GGAUGAUUAACAGGAUAUCAUUUGUAAAUUGGUUGAGAAGGGUUAAUGAUUUAAACGACCUGUUACAUGAGGAUCACCCAUGUU [SameState NG1 #1] (Eterna round: R96, puzzle: Same State NG 1) |  | 45.6 |  |  |  |  |
| AGCUAAUACGAAGGAUAUACUGACAUGAGGAUCACCCAUGUCUACAUGAUUUAUUGUGAUCACAUGUAGAAGGUCGUACUAACA [SameState NG2 #23] (Eterna round: R96, puzzle: Same State NG 2) | 26.8 | 62.3 | 79.8 |  |  |  |
| AGCUAGUACCGAGGAUAUACAUACAUGAGGAUCACCCAUGUAUACAUGAACAAUUGAGACUACAUGUAGAAGGCGGUACUAGCA [JL SSNG2 1.19] (Eterna round: R96, puzzle: Same State NG 2) |  | 37.4 |  |  |  |  |
| AGUCCAGCCUGAGCUGGACAAAAGCAUGUACAUGAGGAUCACCCAUGUUCAUGUACAAGCUUUUUGCUCGUCGGAAU [Mat - hsa-mir-208a - Mod of JL - 49] (Eterna round: R96, puzzle: Sensor for hsa-mir-208a) | 668 | 16.6 | 654 |  |  |  |
| AGAGGAGGAGCAGGAUAUGCGAAGAAGAAAGAGGUAGAAGGGCUCAUGGGAUGACAUGAGGAUCACCCAUGUACCGCCCGAGGA [AK SSNG1-V2-8.1] (Eterna round: R96, puzzle: Same State NG 1) | 11.5 | 46.4 | 297 |  |  |  |
| GGAGCCAAGGCAGGAUAUUCAUAUUAAUAACACAUGAGGAUCACCCAUGUGGCCAGAAGGCCAUGGGAGAAGGGCCAUGGCUCG [Xeonanis - 13 mod10] (Eterna round: R96, puzzle: Same State NG 2) | 86.3 | 195 | 469 |  |  |  |
| UCUUGGUUUUUGCUCGUUUUUUGUGUUGAACAUGAGGAUCACCCAUGUAUUGUACGGUCCAAUUUAGUAGUGGUCCG [JMF 25] (puzzle: Sensor for hsa-mir-208a) |  |  |  | 26.6 | 15.3 | 26.2 |
| GCUACCAAAGAAGCCUACAUGAGGAUCACCCAUGUAUGUAGGCAGGAUAUCGAUUGCAAAGCGAUCGAGAAGGGCUUAGGUAGC [Mat - Same State NG 3 - JL Mod - D92] (Eterna round: R96, puzzle: Same State NG 3) | 68.9 | 116 | 152 |  |  |  |
| CGGCGCUGUCGAGAGGAUAUGCGGUGACGGACAUGAGGAUCACCCAUGUUAGCGAUAGCGUUACGGUAGAAGGCUCUACAGUCGC [Soteed Omei mod 10] (Eterna round: R96, puzzle: Same State 2) | 19.1 | 125 | 217 |  |  |  |
| AGGCUCAGACGAGGAUAUAUGCGAUCACAUGAGGAUCACCCAUGUCUCGAGCUUCGGCUCGAGGCAUAGAAGGUGUCUGAGCCA [SSNG2/4-C1] (Eterna round: R96, puzzle: Same State NG 2) | 31.4 | 111 | 126 |  |  |  |
| GCUCGACUGAUGGCCUACAUGAGGAUCACCCAUGUGAUUGGGCAGGAUAUCUAGAUGCAGGAUGUAGAGAAGGGCCUGUCGAGC [SameState NG3 #44] (Eterna round: R96, puzzle: Same State NG 3) | 1170 | 194 | 349 |  |  |  |
| UGGCUCAGACGAGGAUAUAUGUGAUCACAUGAGGAUCACCCAUGUCUCGAGCUUCGGCUCGAGACAUAGAAGGCGUCUGAGCCU [SSNG2/3-A3] (Eterna round: R96, puzzle: Same State NG 2) | 512 | 12.3 | 17.8 |  |  |  |
| UCAAGCGAGAGGCUCGUCUUAUGUUUGGUACAUGAGGAUCACCCAUGUUAGGGACGAUUUAGUUAGAUGGAAUGGAG [JR_SHM208A_Sub034] (puzzle: Sensor for hsa-mir-208a) |  |  |  | 57.3 | 148 | 69.6 |
| GAAUUUGAACUACAGGAUAUAUAGCAGAUGACAUGAGGAUCACCCAUGUAAGAGAAAGGAGGGAAAUAGAAGGGUAUGGGAGGUG [JR_SS2_Sub034] (puzzle: Same State 2) |  |  |  | 34.5 | 32.9 | 37.7 |
| AGAUCAUGACGAGGAUAUCCGACAUGAGGAUCACCCAUGUAUGUCGGAGGACGGAAACGUCCAAAGGAGAAGGCGUCGUGGUCA [Mat - Same State NG 2 - JL mod - D37] (Eterna round: R96, puzzle: Same State NG 2) | 17.7 | 72.4 | 85.3 |  |  |  |

Reference: the supplement of paper PMC9170038
